Laboratory results as given in patent US20210025890A1 (Genentech, published 2021).

Experiments:
intact human FGF21 [1] = target: T1, intact human FGF21 (human, UniProt Q9NSA1 29-209); test: sandwich ELISA; capture mAb4, detection mAb11
T1 construct: also called full-length, uncleaved FGF21; iFGF21
T1 sequence: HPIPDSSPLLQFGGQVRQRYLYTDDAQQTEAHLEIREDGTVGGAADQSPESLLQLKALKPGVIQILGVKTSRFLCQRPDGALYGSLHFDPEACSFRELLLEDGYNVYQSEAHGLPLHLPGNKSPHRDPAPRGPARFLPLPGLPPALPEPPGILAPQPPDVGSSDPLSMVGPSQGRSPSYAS
Text: (§1) The absorbance values were plotted as a function of antibody concentration and the data were fitted to a three parameter equation for each antibody using Prism 6 (GraphPad Software, Inc., La Jolla, Calif.). The most consistent result was observed when antibodies mAb4 or 9 were used as the capture antibody and antibody mAb11 or mAb15 was used as the detector antibody (FIG. 2 and Table 7). Therefore, mAb8 and 16 were removed from further analysis.

FAP-cleaved human FGF21 [2] = target: T2, FAP-cleaved human FGF21 (human, UniProt Q9NSA1 29-199); test: sandwich ELISA; capture mAb4, detection mAb11
T2 construct: Made by digesting intact human FGF21 with human FAP; also called cleaved FGF21; cFGF21
T2 sequence: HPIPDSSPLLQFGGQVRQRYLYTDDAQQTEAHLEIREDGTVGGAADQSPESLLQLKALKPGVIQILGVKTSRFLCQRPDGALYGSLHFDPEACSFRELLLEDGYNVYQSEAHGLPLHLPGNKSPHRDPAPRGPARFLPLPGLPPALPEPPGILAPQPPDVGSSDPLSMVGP
Text: as §1

intact human FGF21 [3] = target: T1, intact human FGF21; test: sandwich ELISA; capture mAb4, detection mAb15
Text: as §1

FAP-cleaved human FGF21 [4] = target: T2, FAP-cleaved human FGF21; test: sandwich ELISA; capture mAb4, detection mAb15
Text: as §1

intact human FGF21 [5] = target: T1, intact human FGF21; test: sandwich ELISA; capture mAb4, detection mAb16
Text: as §1

FAP-cleaved human FGF21 [6] = target: T2, FAP-cleaved human FGF21; test: sandwich ELISA; capture mAb4, detection mAb16
Text: as §1

intact human FGF21 [7] = target: T1, intact human FGF21; test: sandwich ELISA, intact human FGF21; capture mAb4, detector mAb1
Text: (§2) The absorbance values were plotted as a function of antibody concentration and the data were fitted to a three parameter equation to calculate the half maximal effective concentration (EC₅₀) values for each antibody using Prism 6 (GraphPad Software, Inc., La Jolla, Calif.) (Table 6).

intact human FGF21 [8] = target: T1, intact human FGF21; test: sandwich ELISA, intact human FGF21; capture mAb4, detector mAb10
Text: as §2

intact human FGF21 [9] = target: T1, intact human FGF21; test: sandwich ELISA, intact human FGF21; capture mAb4, detector mAb11
Text: as §2

FAP-cleaved human FGF21 [10] = target: T2, FAP-cleaved human FGF21; test: sandwich ELISA; EC50 on FAP-cleaved FGF21 over EC50 on intact FGF21
Description: (§3) IgG obtained from the selected 20 hybridomas identified in Example 1 were further characterized by ELISA. ELISA was performed as follows: 96 well MaxiSorp plate (439454, Nalge Nunc International; Rochester, N.Y.) was coated with 1 μg/mL of anti-FGF21 mAbs or anti-FGF21 sheep pAbs (Cat. No. RD184108100, Biovendor, Asheville, N.C.) in coating buffer (50 mM sodium carbonate, pH 9.6) overnight at 4° C. […] After washing with the Washing buffer, the plate was incubated with 0.5 μg/ml of the secondary antibody (R&D Systems, biotinylated goat anti-FGF21 pAb BAF2539) for 1-2 hr at room temperature. After washing with Washing buffer, the plate was incubated with High Sensitivity Streptavidin-HRP (PIERCE Cat. No. 21130) diluted 1:1,000 in assay buffer. After washing with the Washing buffer, the binding of anti-FGF21 to recombinant FGF21 was assessed by adding substrate 3, 3′, 5, 5′ tetramethyl benzidine (TMBE 1000, Moss; Pasadena, Md.). The mean absorbance values from duplicate wells were plotted as a function of antibody concentration and the data were fitted to a three parameter equation to calculate the half maximal effective concentration (EC₅₀) values for each antibody using Prism 6 (GraphPad Software, Inc., La Jolla, Calif.) (Table 2).

intact human FGF21 [11] = target: T1, intact human FGF21; test: sandwich ELISA; coated primary Ab, FGF21 titrated, detector biotinylated goat anti-FGF21 pAb BAF2539
Description: as §3

FAP-cleaved human FGF21 [12] = target: T2, FAP-cleaved human FGF21; test: as above
Description: as §3

intact human FGF21 [13] = target: T1, intact human FGF21; test: sandwich ELISA; capture mAb11, detection mAb4
Text: as §1

FAP-cleaved human FGF21 [14] = target: T2, FAP-cleaved human FGF21; test: sandwich ELISA; capture mAb11, detection mAb4
Text: as §1

intact human FGF21 [15] = target: T1, intact human FGF21; test: sandwich ELISA; capture mAb11, detection mAb15
Text: as §1

FAP-cleaved human FGF21 [16] = target: T2, FAP-cleaved human FGF21; test: sandwich ELISA; capture mAb11, detection mAb15
Text: as §1

intact human FGF21 [17] = target: T1, intact human FGF21; test: sandwich ELISA, intact human FGF21; capture mAb11, detector mAb4
intact human FGF21 [18] = target: T1, intact human FGF21; test: sandwich ELISA, intact human FGF21; capture mAb11, detector mAb9
intact human FGF21 [19] = target: T1, intact human FGF21; test: sandwich ELISA; capture mAb9, detection mAb11
Text: as §1

FAP-cleaved human FGF21 [20] = target: T2, FAP-cleaved human FGF21; test: sandwich ELISA; capture mAb9, detection mAb11
Text: as §1

intact human FGF21 [21] = target: T1, intact human FGF21; test: sandwich ELISA; capture mAb9, detection mAb15
Text: as §1

FAP-cleaved human FGF21 [22] = target: T2, FAP-cleaved human FGF21; test: sandwich ELISA; capture mAb9, detection mAb15
Text: as §1

intact human FGF21 [23] = target: T1, intact human FGF21; test: sandwich ELISA; capture mAb9, detection mAb16
Text: as §1

FAP-cleaved human FGF21 [24] = target: T2, FAP-cleaved human FGF21; test: sandwich ELISA; capture mAb9, detection mAb16
Text: as §1

intact human FGF21 [25] = target: T1, intact human FGF21; test: sandwich ELISA, intact human FGF21; capture mAb9, detector mAb1
intact human FGF21 [26] = target: T1, intact human FGF21; test: sandwich ELISA, intact human FGF21; capture mAb9, detector mAb10
Text: as §2

intact human FGF21 [27] = target: T1, intact human FGF21; test: sandwich ELISA, intact human FGF21; capture mAb9, detector mAb11
intact human FGF21 [28] = target: T1, intact human FGF21; test: sandwich ELISA; capture mAb15, detection mAb4
Text: as §1

FAP-cleaved human FGF21 [29] = target: T2, FAP-cleaved human FGF21; test: sandwich ELISA; capture mAb15, detection mAb4
Text: as §1

intact human FGF21 [30] = target: T1, intact human FGF21; test: sandwich ELISA; capture mAb15, detection mAb11
Text: as §1

FAP-cleaved human FGF21 [31] = target: T2, FAP-cleaved human FGF21; test: sandwich ELISA; capture mAb15, detection mAb11
Text: as §1

B1: mAb4 (antibody, V domains shown)
VH: EVKLVESGGDLVKPGGSLKLSCAASGFTFSSYGMSWVRQTPDKRLEWVATISTGGGYTYYPDSVKGRFTISRDNAKNTLYLQMSSLRSEDTAMYYCARHDLVDWYFDVWGTGTTVTVSS
VL: QIVLTQSPAIMSAPLGERVTMTCTASSSVSSSYLHWYQQKPGSSPKVWIYRTTNLASGVPTRFSGSGSGTSYSLTISSMEAEDAATYYCHQYHRSPPTWTFGGGTKLEIKR
notes: Biotinylated when used as detector, coupled to beads in the Simoa assays; also called BIO-4 (biotinylated); antibody 4
For B1, the EC50 (intact human FGF21 [1]) was 0.195 ng/mL, the EC50 (FAP-cleaved human FGF21 [2]) was 0.148 ng/mL and the EC50 (intact human FGF21 [3]) was 0.232 ng/mL. It also gave an EC50 (FAP-cleaved human FGF21 [4]) of 0.263 ng/mL, an EC50 (intact human FGF21 [5]) of 1.25 ng/mL and an EC50 (FAP-cleaved human FGF21 [6]) of 7.04 ng/mL. It also gave an EC50 (intact human FGF21 [7]) of 0.193 ng/mL, an EC50 (intact human FGF21 [8]) of 0.108 ng/mL and an EC50 (intact human FGF21 [9]) of 0.133 ng/mL. For the same binder, the “EC50 ratio (Cleaved/Intact)” value (FAP-cleaved human FGF21 [10]) was 1.9, the EC50 (intact human FGF21 [11]) was 0.09 ng/mL and the EC50 (FAP-cleaved human FGF21 [12]) was 0.17 ng/mL.

B2: mAb11 (antibody, V domains shown)
VH: QVQLQQSGAELARPGASVKLSCKASGYTFTNYGISWVKQRTGQGLEWIGEIYPRSDNTYYNEKFKGKATLTADKSSSTAYMELRSLTSEDSAVYFCTRSDYGFFDYWGQGTTLTVSS
VL: QIVLTQSPALMSASPGERVTMTCSAGSSVSYMYWYQQKPRSSPKPWIYLTSNLASGVPARFSGSGSGTSYSLTISSMEAEDAATYYCQQWSSNPRTFGGGTKLEIKR
notes: Biotinylated when used as detector; also called BIO-11 (biotinylated); antibody 11
In the case of B2, the EC50 (intact human FGF21 [13]) is reported as 0.205 ng/mL, the EC50 (FAP-cleaved human FGF21 [14]) is reported as 0.204 ng/mL and the EC50 (intact human FGF21 [15]) is reported as 0.774 ng/mL. The EC50 (FAP-cleaved human FGF21 [16]) was 0.63 ng/mL, the EC50 (intact human FGF21 [17]) was 0.161 ng/mL and the EC50 (intact human FGF21 [18]) was 0.195 ng/mL. The “EC50 ratio (Cleaved/Intact)” value (FAP-cleaved human FGF21 [10]) was 2.1, the EC50 (intact human FGF21 [11]) was 0.149 ng/mL and the EC50 (FAP-cleaved human FGF21 [12]) was 0.318 ng/mL.

B3: mAb9 (antibody, V domains shown)
VH: EVQLQQSGPELVKPGASVKIPCKASGYTFTDYYMGWVKQSHGKSLEWIGDINPNNGVTINNQNFKGKATLTVDKSSSTAYMELRSLASEDTAVYYCTRGYGGALDYWGQGTSVTVSS
VL: DIQMTQSPASLSASVGETVIITCRASENIYSYLAWYQQKQGKSPQLLVYNIRTLAEGVPSRFSGSGSGTQFSLKINSLQPEDFGSYYCQHHYDSPWTFGGGTKLEIKR
notes: also called BIO-9 (biotinylated); antibody 9
With B3 the EC50 (intact human FGF21 [19]) was 0.166 ng/mL, the EC50 (FAP-cleaved human FGF21 [20]) was 0.156 ng/mL and the EC50 (intact human FGF21 [21]) was 0.431 ng/mL. For the same binder, the EC50 (FAP-cleaved human FGF21 [22]) was 0.363 ng/mL, the EC50 (intact human FGF21 [23]) was 1.45 ng/mL and the EC50 (FAP-cleaved human FGF21 [24]) was 6.23 ng/mL. The EC50 (intact human FGF21 [25]) was 0.249 ng/mL, the EC50 (intact human FGF21 [26]) was 0.161 ng/mL and the EC50 (intact human FGF21 [27]) was 0.156 ng/mL. The “EC50 ratio (Cleaved/Intact)” value (FAP-cleaved human FGF21 [10]) was 1.6, the EC50 (intact human FGF21 [11]) was 0.855 ng/mL and the EC50 (FAP-cleaved human FGF21 [12]) was 1.39 ng/mL.

B4: mAb15 (antibody, V domains shown)
VH: QVQLIQSGPGLVQPSQSLSITCTVSGFSLTGYAIHWVRQSPGKGLEWLGMIWKSGNTDYNAAFMSRLSITKDNSKSQVFFKMNSLQADDTAIYYCARNGYDYEFVYWGQGTLVTVSA
VL: DVLMTQTPLSLPVSLGDQASISCRSSQIIVHNNGDTYLEWYLQKPGQSPKLLIYKISNRFSGVPDRFSGSGSGTDFTLKISRVEAEDLGVYYCFQGSHVPYTFGGGTKLEIKR
notes: Biotinylated when used as detector; also called BIO-15 (biotinylated); mAb15-Biotin
Work on B4 yielded an EC50 (intact human FGF21 [28]) of 0.537 ng/mL, an EC50 (FAP-cleaved human FGF21 [29]) of 0.562 ng/mL and an EC50 (intact human FGF21 [30]) of 1.39 ng/mL. For the same binder, the EC50 (FAP-cleaved human FGF21 [31]) was 1.24 ng/mL.
